Results taken from the supplement of paper PMC9170038.

Test system: MS2 coat protein
Assay: apparent KD of MS2 coat protein; designed switch direction (-1 OFF switch, 1 ON switch): 1; higher = weaker reporter binding
Procedure, shortened: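 SNAP-549-labelled MS2 coat protein was titrated, doubling from 0.7 or 1.5 nM to 3 µM, over designed RNA switches transcribed on Illumina chips by stalled E. coli RNA polymerase. Runs were done without input, with 200 uM small-molecule ligand, or with an oligonucleotide input. Apparent KD is the per-design median over clusters of curve-fitted normalised fluorescence.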

[1] = input ligand: microRNA oligo, concentration not stated
[2] = Eterna round: R95, input ligand: FMN 200 uM
[3] = Eterna round: R95, input ligand: microRNA oligo, concentration not stated
[4] = Eterna round: R95, input ligand: none

| Sequence | apparent KD of MS2 coat protein (input ligand: FMN 200 uM) [nM] | apparent KD of MS2 coat protein [1] [nM] | apparent KD of MS2 coat protein (input ligand: none) [nM] | apparent KD of MS2 coat protein [2] [nM] | apparent KD of MS2 coat protein [3] [nM] | apparent KD of MS2 coat protein [4] [nM] |
| --- | --- | --- | --- | --- | --- | --- |
| CCGCUCUAUGGAGGAUAUGGGCCUGCCCGGGAUAACGGGCCUAAUACAUGAGGAUCACCCAUGUCCCAGAAGGCCGCUAGAGCC [Errexexe] (Eterna round: R96, puzzle: Same State NG 2) | 120 | 348 | 471 | – | – | – |
| AGAGAAGAAGCUGAGGAUAUCGUAAGGAGGACAUGAGGAUCACCCAUGUGUGUGGAAUUGGAGGACGAGAAGGCAGAGGAGUGGG [JR_SS2_Sub056] (puzzle: Same State 2) | – | – | – | 25.1 | 28.3 | 27.8 |
| GCUCGACUGAUGGCCUACAUGAGGAUCACCCAUGUGACUGGGCAGGAUAUCUAGAUGCAGGAUGUAGAGAAGGGCCUGUCGAGC [SameState NG3 #43] (Eterna round: R96, puzzle: Same State NG 3) | 589 | 201 | 426 | – | – | – |
| AUGCCAAAUCAAGGAUAUGGAUCCUUAUUGGAUCCAGAAGGUGGGACAUGAGGAUCACCCAUGUGGCAGUGGUCUAAUGACCAC [Fiskers NG1ss - 30] (Eterna round: R96, puzzle: Same State NG 1) | 61 | 185 | 281 | – | – | – |
| GCUCGAUGAGCUGUUUACAUGAGGAUCACCCAUGUAGAUGCGGAGGAUAUCUACGUGCUUUAUGUAGAGAAGGCCGUAUCGAGC [SameState NG3 #81] (Eterna round: R96, puzzle: Same State NG 3) | 14.2 | 22.2 | 28.4 | – | – | – |
| UUUAGUUGCGGGCAGGAUAUGUAUUAAAAUACAUGAGGAUCACCCAUGUGAGAUCAUAAAGAUCUACAGAAGGGCCAAUCGCGAC [Laonerce - 18] (puzzle: Same State 2) | – | – | – | 13.4 | 69.4 | 91.6 |
| GGUCGGACAUGAGGAUCACCCAUGUGGUGACCGGAAACGGCAUAGGAUAUCUGUCCGAAAAGGUCAGAGAAGGGUGAACCGACC [Fiskers NG3ss - 69] (Eterna round: R96, puzzle: Same State NG 3) | 160 | 15.5 | 126 | – | – | – |
| UGGCUCAGACGAGGAUAUAUGUCUCGAGCUUCGGCUCGAGACAUGAGGAUCACCCAUGUAAUAACAUAGAAGGUGUCUGAGCCA [SSNG2/1-C2] (Eterna round: R96, puzzle: Same State NG 2) | 50.6 | 240 | 263 | – | – | – |
| AGUCCUGAAAGGAAAAUUAUAAGUGAUGUACAUGAGGAUCACCCAUGUCAUGUACAAGUUCUAUGCUCGUCUUAUAA [Sensorship 25 - Jieux - Sensor for hsa-mir-208a] (puzzle: Sensor for hsa-mir-208a) | – | – | – | 222 | 34.1 | 216 |
| AUAAAACAUGAGGAUCACCCAUGUCAAAAGACAUGAGGAUAUGUGCAAAUAAAAUAAGAAACAGAAGGCAUGAAAA [salish99_ss1_r3_103] (puzzle: Same State 1) | – | – | – | 98 | 105 | 222 |
| AUAAGUUCGAUGCUCGUCUCUCCGUACAAACAUGAGGAUCACCCAUGUGAUCGAGAAGUAGCCCGAUCAGUAUGGCC [Soainge] (puzzle: Sensor for hsa-mir-208a) | – | – | – | 30.2 | 27 | 35.3 |
| GGCGGCCUGGGAGGAUAUCGGGCCCUUUGGGCCCGAGAAGGUCCGGAGCCUCUGACAUGAGGAUCACCCAUGUAGGCUGCUGCC [first try] (Eterna round: R96, puzzle: Same State NG 1) | 45.4 | 186 | 154 | – | – | – |
| UAAACUUCUUUUAGUGUAAUGCAUGUGAUACAUGAGGAUCACCCAUGUUUUGGUUCGUUUUAUUUUGUUCGUCUUAA [JR_SHM208A_Sub078] (puzzle: Sensor for hsa-mir-208a) | – | – | – | 59.3 | 43.9 | 81.8 |
| AUUAUUUAUGCAGGAUAUGAUUAACAUGAGGAUCACCCAUGUGGUGUUGUGAGUAAGGAGAGUGAUCAGAAGGGCAGUUUUUUU [JMF's solution 43] (Eterna round: R96, puzzle: Same State NG 2) | 568 | 231 | 406 | – | – | – |
| GUAAGUUUGAUGCUCGUCUCUCCGUACAAACAUGAGGAUCACCCAUGUGGUCGGGAAGUAGCCCGGCCAGUAUGGCC [Rerire] (puzzle: Sensor for hsa-mir-208a) | – | – | – | 24.8 | 21.4 | 26.8 |
| UUGCUUCUCGUAGGAUAUGUAGGAUAUUCCUACAUGAGGAUCACCCAUGUUCGCAUGGAAGAAGGACAGAAGGACGAUCACCCU [pwkr ssNG2 2FMN + 1F5.10] (Eterna round: R96, puzzle: Same State NG 2) | 330 | 234 | 271 | – | – | – |

| Sequence | apparent KD of MS2 coat protein (input ligand: FMN 200 uM) [nM] | apparent KD of MS2 coat protein [1] [nM] | apparent KD of MS2 coat protein (input ligand: none) [nM] | apparent KD of MS2 coat protein [2] [nM] | apparent KD of MS2 coat protein [3] [nM] | apparent KD of MS2 coat protein [4] [nM] |
| --- | --- | --- | --- | --- | --- | --- |
| AGGCUCAGACGAGGAUAUAUGUGAUCACAUGAGGAUCACCCAUGUCUCGAGCUUCGGCUCGAGACAUAGAAGGUGUCUGAGCCA [SSNG2/3-C1] (Eterna round: R96, puzzle: Same State NG 2) | 76.4 | 3.03 | 32.3 | – | – | – |
| UGUUGUAUUACAGGAUAUCUAUUGUUAUUAUUUAGAGAAGGGUAUUCACAUGAGGAUCACCCAUGUAUAUACGAGGAAGUUGUG [JMF's solution 74] (Eterna round: R96, puzzle: Same State NG 1) | – | 33 | – | – | – | – |
| UGGUACAUGGGAGGAUAUGGAGUGAAGACAUGAGGAUCACCCAUGUUAUAAAUGCCGAGAGGCAACUAGAAGGCCCAUGUACCU [JL SSNG1 3.94] (Eterna round: R96, puzzle: Same State NG 2) | – | 54.3 | – | – | – | – |
| GCCACACAUGAGGAUCACCCAUGUAAUUACAUGGGAGGAUAUCAGUGCUCGAAAGAGCACUGAGAAGGCCCGUGGC [SS1 - Omei A v4] (puzzle: Same State 1) | – | – | – | 120 | 40.1 | 309 |
| UUCAACUGAGGAGGAUAUGCAGAGGAUCACCCUGUAGAAGGCCUCGAAAGGAGGAUAUGCAGAGGAUCACCCUGUAGAAGGCCU [pwkr ssNG DX.19] (Eterna round: R96, puzzle: Same State NG 1) | 417 | 148 | 132 | – | – | – |
| AUCCUACAUGAGGAUCACCCAUGUGACGCCUCAAUAGGAUAUGCGUGUGCCUUGGCGCAUGCAGAAGGAUUGGAGC [JL Aveso mod 4] (puzzle: Same State 1) | – | – | – | 84.6 | 318 | 279 |
| UUCCUUCUCGUAGGAUAUGUAGGAUAUUCCUACAUGAGGAUCACCCAUGUUCGCAUGGAAGAAGGACAGAAGGACGAUCACCCU [pwkr ssNG2 2FMN + 1F5.11] (Eterna round: R96, puzzle: Same State NG 2) | 91.3 | 74.3 | 98.5 | – | – | – |
| CUGCUACAUGAGGAUCACCCAUGUUGGAGUGAUGCAGGAUAUGUGGGACCAGAAGAUGAAACAGAAGGGCAAAGAA [JR_SS!_Sub005] (puzzle: Same State 1) | – | – | – | 98.4 | 119 | 97.6 |
| CUGAAAUGUCAAGGAUAUCACGUCGAUUAGACGUGAGAAGGUGAUCUGCACAUGAGGAUCACCCAUGUGUUACAUGGAAUUCAG [Brourd's SSNG1/1-A2 mod 13] (Eterna round: R96, puzzle: Same State NG 1) | 166 | 406 | 503 | – | – | – |
| AUAAGUUCGAUGCUCGUCUCUCCGUACAAACAUGAGGAUCACCCAUGUGAUCGGGAAGUAGCCCAAUCAGUAUGGCC [Oranlaen] (puzzle: Sensor for hsa-mir-208a) | – | – | – | 26.6 | 30 | 31.3 |
| UAUGAACAUGAGGAUCACCCAUGUGGAAAAGACACAGGAUAUCAUCCCGGACGUGCGAGAUGAGAAGGGUGAUGGU [Edrive] (puzzle: Same State 1) | – | – | – | 267 | 205 | 367 |
| GAGGGCGAAAGCAACAUGAGGAUCACCCAUGUCCUCGGAGGGCAGGAUAUCCGGCGGUAGCCGAAGGAGAAGGGUCGGUAAGAA [AK SSNG3-V2-33.1] (Eterna round: R96, puzzle: Same State NG 3) | 159 | 107 | 584 | – | – | – |
| CGUCGUUUGAUAGGAUAUCGCUAUACAUGAGGAUCACCCAUGUUUACCACGCUGGUUUUUCAUACCGAGAAGGAUUCUGAUGUU [salish99_SSNG02_r04_016] (Eterna round: R96, puzzle: Same State NG 2) | 49.8 | 42.4 | 44.1 | – | – | – |
| UUACUCAUGUAAGGAUAUGCAGCCGAAACGGCUGCAGAAGGUACUAUAAUACAUGAGGAUCACCCAUGUCUCUAUUAUAAAGUU [Mat - Same State NG 1 - JL mod - D95] (Eterna round: R96, puzzle: Same State NG 1) | 94.8 | 43.4 | 49.5 | – | – | – |
| GGAGCCGACACUGAGGAUAUUCAUAUUAAAACAUGAGGAUCACCCAUGUAGGCCAGAAGGCCUUGGGAGAAGGCAGGUCGGCCCG [Bibimoar - 2] (puzzle: Same State 2) | – | – | – | 15.9 | 331 | 294 |
